Experimental data reported in paper PMC7207076 (Biochemistry, 2020).
Non-standard residues stand in square brackets, D forms with d. No end group written: not given here. Lys(Me3) = C[N+](C)(C)CCCC[C@H](N)C(=O)O

How the values were obtained:
KDM5A1–797 [1] = biological target: T1, KDM5A1–797 (Homo sapiens, UniProt P29375); assay type: biochemical; settings: for kcat: 21mer H3K4me3 peptide substrates, saturating (20 μM) effector peptide (unmodified H3 10mer, aa 1–10), means ± SEM of two independent experiments, SEM; for fold increase of KMapp relative to 21mer WT peptide: 21mer H3K4me3 peptides, PHD1 domain saturated with effector peptide; for fold increase of KMapp compared to the 18mer WT peptide: H3K4me3 basic patch (K14-K18) deletion/mutant/acetylated peptides
T1 sequence (P29375 1-797): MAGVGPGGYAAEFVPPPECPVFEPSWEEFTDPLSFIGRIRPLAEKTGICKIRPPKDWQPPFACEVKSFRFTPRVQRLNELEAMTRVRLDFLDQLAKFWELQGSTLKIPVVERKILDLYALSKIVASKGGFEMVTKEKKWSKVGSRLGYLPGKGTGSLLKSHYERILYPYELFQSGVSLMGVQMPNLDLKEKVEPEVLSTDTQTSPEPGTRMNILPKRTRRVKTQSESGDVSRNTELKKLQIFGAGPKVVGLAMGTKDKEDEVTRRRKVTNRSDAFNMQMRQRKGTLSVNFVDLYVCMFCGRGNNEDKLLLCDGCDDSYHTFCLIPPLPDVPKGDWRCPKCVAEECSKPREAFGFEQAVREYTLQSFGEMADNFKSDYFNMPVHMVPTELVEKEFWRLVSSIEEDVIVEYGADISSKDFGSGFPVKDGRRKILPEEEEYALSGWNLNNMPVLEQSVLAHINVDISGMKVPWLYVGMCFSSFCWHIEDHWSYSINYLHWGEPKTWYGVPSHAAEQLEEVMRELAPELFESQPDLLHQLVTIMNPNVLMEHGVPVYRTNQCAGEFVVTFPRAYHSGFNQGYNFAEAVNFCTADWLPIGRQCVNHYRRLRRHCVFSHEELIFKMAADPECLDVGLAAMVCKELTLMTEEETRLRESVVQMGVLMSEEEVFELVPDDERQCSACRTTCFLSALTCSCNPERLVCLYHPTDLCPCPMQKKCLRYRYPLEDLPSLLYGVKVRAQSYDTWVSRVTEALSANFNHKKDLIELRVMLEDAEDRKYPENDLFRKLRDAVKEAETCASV

KDM5A1–797 [2] = biological target: T1, KDM5A1–797; assay type: biochemical; settings: for KDM5A1–797 activity normalized to the 18mer WT peptide reaction (100%): H3K4me3 basic patch mutant/deletion peptides

| Substance | kcat (KDM5A1–797 [1]) [s⁻¹] | fold increase of KMapp relative to 21mer WT peptide (KDM5A1–797 [1]) | further results |
| --- | --- | --- | --- |
| T6S: 21mer H3K4me3 peptide with T6 mutated to serine | 0.070 ± 0.002 |  |  |
| T3A: 21mer H3K4me3 peptide with T3A mutation | 0.056 ± 0.001 |  |  |
| T6A: 21mer H3K4me3 peptide with T6A mutation | 0.075 ± 0.004 | ~ 8 fold |  |
| Q5A: 21mer H3K4me3 peptide with Q5A mutation | 0.056 ± 0.003 | > 30 fold | KDM5A1–797 activity normalized to the 21mer H3K4me3 WT peptide reaction (100%) (KDM5A1–797 [2]; 21mer H3K4me3 alanine mutant peptides, two independent experiments): ~ 20% |
| T6V: 21mer H3K4me3 peptide with T6 mutated to valine | 0.050 ± 0.003 | 3 fold |  |
| R8A: 21mer H3K4me3 peptide with R8A mutation | 0.054 ± 0.002 | ~ 4 fold |  |
| 13mer: 13mer H3K4me3 peptide lacking the K14-K18 basic patch (ARTKQTARKSTGG; K4me3; UniProt P68431 2-14, looked up, fragment) |  |  | KDM5A1–797 activity normalized to the 18mer WT peptide reaction (100%) (KDM5A1–797 [2]; two independent experiments): 28%−35%; fold increase of KMapp compared to the 18mer WT peptide (KDM5A1–797 [1]): 8 fold |
| K9A: 21mer H3K4me3 peptide with K9A mutation | 0.061 ± 0.002 |  |  |
| 18mer-K14A/R17A/K18A: 18mer H3K4me3 peptide, K14A/R17A/K18A triple mutant (ART[Lys(Me3)]QTARKSTGGAAPAA; UniProt P68431 2-19, looked up, variant K14A R17A K18A) |  |  | KDM5A1–797 activity normalized to the 18mer WT peptide reaction (100%) (KDM5A1–797 [2]; two independent experiments): 28%−35%; fold increase of KMapp compared to the 18mer WT peptide (KDM5A1–797 [1]): 8 fold |
| WT: H3 N-terminal 21mer (aa A1-A21) H3K4me3 wild-type peptide substrate | 0.052 ± 0.001 |  |  |
| H3K18me3 (aa 12—32): H3 peptide aa 12—32 trimethylated at K18 |  |  | demethylation of H3K18me3 peptide by KDM5A1—797 (KDM5A1–797 [2]; peptide incubated with KDM5A1—797 (Figure S3)): no demethylation was detected |
| R2A: 21mer H3K4me3 peptide with R2A mutation | 0.069 ± 0.002 | ~ 12 fold | fold rescue in demethylation in the presence of the effector peptide (KDM5A1–797 [2]; 20 μM effector (unmodified 10mer H3 peptide), 21mer H3K4me3 mutant peptide): ~ 3 fold |
